Laboratory results published in patent US20060067919A1.

Molecular target: truncated APC mutant in SW480 cells (human) (UniProt P25054)
Test: cell-based or functional assay

Sequence of UniProt P25054 (P25054 2-1337, change not shown): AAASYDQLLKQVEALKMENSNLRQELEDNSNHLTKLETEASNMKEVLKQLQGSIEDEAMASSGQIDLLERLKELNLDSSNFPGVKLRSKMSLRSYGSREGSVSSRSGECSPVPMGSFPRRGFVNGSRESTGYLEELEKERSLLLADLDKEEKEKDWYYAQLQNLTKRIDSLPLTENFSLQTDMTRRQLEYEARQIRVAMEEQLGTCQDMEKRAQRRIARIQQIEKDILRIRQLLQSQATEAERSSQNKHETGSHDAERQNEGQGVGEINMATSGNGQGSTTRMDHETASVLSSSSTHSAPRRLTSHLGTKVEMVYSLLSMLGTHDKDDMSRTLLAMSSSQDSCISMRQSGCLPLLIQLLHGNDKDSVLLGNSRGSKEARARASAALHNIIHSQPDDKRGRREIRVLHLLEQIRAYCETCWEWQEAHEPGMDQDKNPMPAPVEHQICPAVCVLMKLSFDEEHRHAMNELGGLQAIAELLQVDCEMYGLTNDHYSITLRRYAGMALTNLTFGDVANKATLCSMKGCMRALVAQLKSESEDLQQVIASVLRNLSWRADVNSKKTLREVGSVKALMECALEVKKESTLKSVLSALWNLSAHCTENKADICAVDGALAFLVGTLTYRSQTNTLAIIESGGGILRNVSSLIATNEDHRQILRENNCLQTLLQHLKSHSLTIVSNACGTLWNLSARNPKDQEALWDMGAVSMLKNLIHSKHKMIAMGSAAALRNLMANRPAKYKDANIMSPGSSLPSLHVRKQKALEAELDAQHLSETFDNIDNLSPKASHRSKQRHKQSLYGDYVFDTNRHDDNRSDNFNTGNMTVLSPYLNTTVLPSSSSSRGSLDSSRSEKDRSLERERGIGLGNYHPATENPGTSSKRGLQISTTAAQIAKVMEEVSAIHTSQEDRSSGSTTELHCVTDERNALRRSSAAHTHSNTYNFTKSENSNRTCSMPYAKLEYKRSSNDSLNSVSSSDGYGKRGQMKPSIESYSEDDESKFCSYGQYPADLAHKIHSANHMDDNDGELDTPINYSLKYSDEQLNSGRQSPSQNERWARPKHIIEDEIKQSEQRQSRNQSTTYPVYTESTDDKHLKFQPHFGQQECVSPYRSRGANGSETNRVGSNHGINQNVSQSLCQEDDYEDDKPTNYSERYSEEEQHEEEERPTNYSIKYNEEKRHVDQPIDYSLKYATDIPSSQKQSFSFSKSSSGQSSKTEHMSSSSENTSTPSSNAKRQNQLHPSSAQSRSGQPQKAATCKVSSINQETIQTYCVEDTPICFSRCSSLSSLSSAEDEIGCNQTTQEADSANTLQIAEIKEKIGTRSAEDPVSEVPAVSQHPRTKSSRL

migration of SW480 cells relative to parental or Mock cells (% of parental or Mock cells)	decrease of migration of SW480 cells	Substance
50	–	Asef-ABR expressed in cells from a plasmid (from UniProt Q9NR80 73-126)
–	40 % decrease	Asef-ΔDH (mutant that lacks the DH domain (GEF domain) of Asef) (from UniProt Q9NR80 1-619)
